In experiment [1] the target is T1, recombinant human RSPO3 protein (human, UniProt Q9BXY4 22-272).
T1 construct: Used biotinylated on Octet sensors, immobilised on a CM5 chip in Biacore, and coated on ELISA plates; also called hRSPO3; huRSPO3
T1 sequence (looked up): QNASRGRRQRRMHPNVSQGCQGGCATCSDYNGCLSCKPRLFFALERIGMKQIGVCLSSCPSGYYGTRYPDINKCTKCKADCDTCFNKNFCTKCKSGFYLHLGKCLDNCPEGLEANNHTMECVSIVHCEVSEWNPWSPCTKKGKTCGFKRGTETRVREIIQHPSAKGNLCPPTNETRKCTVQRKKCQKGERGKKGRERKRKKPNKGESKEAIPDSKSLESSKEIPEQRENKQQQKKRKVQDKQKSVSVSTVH
Description: SPR (Biacore T200); hRSPO3 immobilised on CM5 chip, antibody injected, single-cycle, 1:1 model. On the procedure:
FIG. 7 is a graph showing use of Biacore to measure the binding kinetics of α-RSPO3 Abs-antigen interaction. The binding sensorgrams were generated using a Biacore T200 and then fitted to a simple 1:1 interaction model. […] The association was monitored for 2 min, and the final dissociation time was 15 min hRSPO3 was immobilized on a CMS chip at 27.5 RU.
The binding kinetics between α-RSPO3 Abs and recombinant human RSPO3 protein (hRSPO3) were performed at 25° C. using a Biacore T200 biosensor equipped with a CMS Series S Sensor Chip (GE Healthcare). […] Obtained sensorgrams were corrected by double subtracting the signal obtained on a reference surface and the signal of the running buffer. Sensograms were fit globally with BIAcore T200 evaluation software 3.0 using 1:1 binding model to yield affinity constants (KD values) for α-RSPO3 Abs. Replicate measurements were made in separate experiments, using independently prepared α-RSPO3 Abs dilution series and huRSPO3-coated chip surfaces.

Experiment [2] concerns the target T1, recombinant human RSPO3 protein. The experiment can be described thus: cell-based or functional assay.
Experiment [3] shares this target. The experiment can be described thus: ELISA on coated antigen (BSA, RSPO1, RSPO2, RSPO3, RSPO4), absorbance 450 nm [B]. A general note: In an ELISA, binding on a coated surface is turned into a signal by an enzyme label.
Experiment [4] deals with T2, RSPO4 (UniProt Q2I0M5 20-234, limits assumed). The experiment can be described thus: Western blot: RSPO1-4 on the blot, probed with the hybridoma antibody [B]. For orientation: In western blotting, separated proteins are transferred to a membrane and probed.
T2 sequence (Q2I0M5 20-234 limits assumed): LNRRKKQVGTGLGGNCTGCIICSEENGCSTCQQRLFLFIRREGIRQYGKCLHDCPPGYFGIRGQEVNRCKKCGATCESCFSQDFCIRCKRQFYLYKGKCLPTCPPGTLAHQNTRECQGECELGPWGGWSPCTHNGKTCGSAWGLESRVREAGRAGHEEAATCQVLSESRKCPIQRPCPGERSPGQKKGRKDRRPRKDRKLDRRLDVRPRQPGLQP
Experiment [5] concerns the target T3, RSPO1 (UniProt Q2MKA7 21-263, limits assumed). The description is as above.
The target in experiment [6] is T4, RSPO2 (UniProt Q6UXX9 22-243, limits assumed). Described as above.
T4 sequence (Q6UXX9 22-243 limits assumed): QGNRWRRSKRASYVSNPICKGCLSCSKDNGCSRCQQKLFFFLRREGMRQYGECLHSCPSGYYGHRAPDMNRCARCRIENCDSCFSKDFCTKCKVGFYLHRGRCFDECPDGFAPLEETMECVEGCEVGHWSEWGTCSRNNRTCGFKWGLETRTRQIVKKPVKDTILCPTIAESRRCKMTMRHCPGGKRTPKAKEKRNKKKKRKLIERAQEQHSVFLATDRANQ
Experiment [7] concerns the target T1, recombinant human RSPO3 protein. Description: BLI (Octet, ForteBio); biotinylated RSPO3 on streptavidin sensors. The protocol: The streptavidin-coated sensors were coated with 10 μg/ml of biotinylated RSPO3 as described in the handbook of ForteBio. Antibody concentrations were in the range of 0.75 and 93.8 nM. Quantitative kinetic binding analysis was performed with pH-adjusted PBS with 0.5% BSA. All steps were run at 30° C. with a continuous shaking speed at 1000 rpm.
To assess the RSPO3-binding affinities of the antibodies, kinetics assays were performed by the Octetsystems.

Experiment [8] has as its target T2, RSPO4. Description: ELISA on coated antigen (BSA, RSPO1, RSPO2, RSPO3, RSPO4), absorbance 450 nm [A].
The target in experiment [9] is T3, RSPO1. The description is as above.
Experiment [10] has as its target T4, RSPO2. Described as above.
Experiment [11] has as its target T5, GKKGRERKRK
T5 construct: member of the PepSet library m27
T5 peptide: Biotin-SGSGGKKGRERKRK
The experiment can be described thus: PepSet ELISA: biotinylated 10-mer on NeutrAvidin plate, antibody 10 µg/ml, OD450 [C]. From the text:
(§1) FIG. 8 is a set of graphs showing mapping of the α-RSPO3 Ab epitopes on RSPO3 protein by Pep-set.
(§2) The deduced amino acid sequence of RSPO3 (GenBank accession no. NP_116173) was used as the reference sequence to design the PepSet library of biotinylated linear peptides that cover the mature domain of RSPO3. The 121 peptides synthesized by Mimotopes (Victoria, Australia) were 10 amino acids in length and offset by 2 residues in these two formats: Biotin-SGSG-PEPTIDE-NH2 for N-terminal peptide and Biotin-SGSG-PEPTIDE-OH for the C-terminal peptide. The peptides (1-3 mg) were dissolved in 200 microliter 80/20 DMSO/water mixture and further diluted at 1:200 in PBS containing 0.1% BSA and 0.1% sodium azide as working solution. In order to attach different biotinylated peptides on each well of the plates, plates coated with NeutrAvidin and blocked with BSA (Thermo Scientific Pierce, Rockford, Ill.) were utilized. Plates were washed three times with 1× PBS with 0.1% Tween 20 and then […] biotinylated peptide solution was applied to each well of plates. After one hour incubation at room temperature, plates were washed three times again with 1× PBST. α-RSPO3 antibodies at 10 μg/ml were then added to each well of plates and the plates were incubated with agitation for one hour. […] To detect bound anti-RSPO3 antibodies, Goat anti-human IgG-Fc-HPR was then applied to plates for one hour. After removing extra detection antibodies by washing the plates with 1× PBST, 100 μl Tetramethylbenzidine (TMB) substrate solution was added to each well for 20 minutes.

The target in experiment [12] is T6, KGRERKRKKP
T6 construct: member of the PepSet library m27
T6 peptide: Biotin-SGSGKGRERKRKKP
Described as above.
Source text: as §1, §2

In experiment [13] the target is T7, ERGKKGRERK
T7 construct: member of the PepSet library m27
T7 peptide: Biotin-SGSGERGKKGRERK
Described as above.
Source text: as §1, §2

The target of experiment [14] is T8, RENKQQQKKR
T8 construct: member of the PepSet library m27
T8 peptide: Biotin-SGSGRENKQQQKKR
Described as above.
Source text: as §1, §2

Experiment [15] has as its target T2, RSPO4. The experiment can be described thus: Western blot: RSPO1-4 on the blot, probed with the hybridoma antibody [A].
For experiment [16], the target named is T3, RSPO1. Described as above.
For experiment [17], the target named is T4, RSPO2. Described as above.

No end group written: not given here. *: point of attachment. Biotin = O=C1N[C@H]2[C@H](CS[C@H]2CCCCC(=O)*)N1

As usually defined, the Kd is the free concentration of one partner at which half of the binding sites on the other are occupied at equilibrium, for simple one-to-one binding. By koff is commonly meant the rate constant with which the complex falls apart. A word on the kon: it is the second-order rate constant of association.

T3 sequence (Q2MKA7 21-263 limits assumed): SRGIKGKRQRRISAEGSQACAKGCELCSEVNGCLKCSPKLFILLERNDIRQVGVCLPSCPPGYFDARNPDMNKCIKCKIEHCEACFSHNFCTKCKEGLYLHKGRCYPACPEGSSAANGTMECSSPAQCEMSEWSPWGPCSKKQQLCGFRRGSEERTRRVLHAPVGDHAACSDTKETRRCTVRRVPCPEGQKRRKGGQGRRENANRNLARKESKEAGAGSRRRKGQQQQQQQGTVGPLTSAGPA

B1: rosmantuzumab (131R010) (antibody, V domains shown)
VH: QVQLVQSGAEVKKPGASVKVSCKASGYTFTDYSIHWVRQAPGQGLEWIGYIYPSNGDSGYNQKFKNRVTMTRDTSTSTAYMELSRLRSEDTAVYYCATYFANNFDYWGQGTTLTVSS
VL: DIQMTQSPSSLSASVGDRVTITCKASQSVDYDGDSYMNWYQQKPGKAPKLLIYAASNLESGVPSRFSGSGSGTDFTLTISPVQAEDFATYYCQQSNEDPLTFGAGTKLELK
Consider B1, for which, in experiment [1], the Kd worked out at 0.02 nM, the koff was 0.000181 s⁻¹ and the kon turned out to be 9.4e+06 M⁻¹ s⁻¹. For the same molecule, the “IC50 in the WNT reporter assay (MDA-MB436 TCF/LEF-Luc, Wnt3a plus hRSPO3)” value in [2] is 58.7 nM.

B2: anti-RSPO3 hybridoma antibody B1 (antibody, IgG1, V domains shown)
VH: QIQLQESGPGLVKPSQSLSLTCSVTGYSITSGYYWNWIRQFPGNKLEWMGYISYDGTNNYNPSLKDRISITRDTSMNQFFLKLNSVTTEDTATYYCSVLLIQYFNIWGAGTTVTVSS
VL: DIQMTQSPASLSASVGETVTITCRTSESVNNFLAWFHQKQGKSPQLLVYHAKTLADGVSSRFSGSGSGTQYSLKINSLQPEDFGNYYCQHFWSIPWTFGGGTKLEIKR
notes: Murine hybridoma mAb; also called clone B1
Take B2: the binding result in experiment [3] was “binds”; in experiment [4], “no binding”; in experiment [5] it was “no binding”; in experiment [6], “no binding”.

B3: reference anti-RSPO3 antibody 131R002 (antibody, V domains shown)
VH: QVQLQESGPELVKPGASVKISCKASGYTFTDYSIHWVKQNHGKSLDWIGYIYPSNGDSGYNQKFKNRATLTVDTSSSTAYLEVRRLTFEDSAVYYCATYFANYFDYWGQGTTLTVSS
VL: DIVLTQSPASLAVSLGQRATISCKASQSVDYDGDSYMNWYQQKPGQPPKLLIYAASNLESGIPARFSGSGSGTDFTLNIHPVEEEDAATYYCQQSNEDPLTFGAGTKLELKR
Consider B3, for which, in [7], the Kd turned out to be 1.93 nM, the koff was determined as 0.00202 s⁻¹ and the kon turned out to be 1.05e+06 M⁻¹ s⁻¹.

B4: anti-RSPO3 hybridoma antibody A4 (antibody, IgG1, V domains shown)
VH: QVQLQESGAELAKPGASVKMSCKASGHTLTYYWMHWVKQRPGQGLEWIGYIDPSTGYSEYNQRFEGKATLTADKSSGTVYMQLSSLTSEDSAVYYCARNGPFAYWGQGTLVTVSA
VL: DNVLTQSPAIMSASPGEKVTMTCSASSSVNYMYWYQQKPGSSPRLLIYDTSKLASGVPVRFSGSGSGTSYSLTISRMEAEDAATYYCQQWSSSPLTFGVGAKLEIKR
notes: Murine hybridoma mAb; also called clone A4; hybridoma A4
Take B4: in [7], the Kd was 27 nM. Moreover, in experiment [7], the koff worked out at 0.000884 s⁻¹. Moreover, in experiment [7], the kon was 32700 M⁻¹ s⁻¹. In addition, the binding result in experiment [8], in [9] and in experiment [10] was “no binding” each time.

B5: anti-RSPO3 hybridoma antibody A6 (antibody, IgG2a, V domains shown)
VH: QVQLQQSGAEIVRSGASVKLSCTASGFSITEYYIHWVKQRPDQGLEWIGMIDPENGDTDYAPKFQGKATMTADTSSNTVNLQLSSLTSEDTAVYYCHGPGPLEYWGQGTTLTVSS
VL: DIVMTQSPLSLPVSLGDQASISCRSSQSIVHSNGNTYLEWYLQKPGQSPNLLIYRVSNRFSGVPDRFNGSGSGTDFTLKISRVEPEDLGVYSCFQASHVPYTFGGGTKLEIKR
notes: Murine hybridoma mAb; also called clone A6; hybridoma A6
Turning to B5, the Kd in [7] worked out at 10.4 nM. Moreover, the koff in experiment [7] is 0.0025 s⁻¹. For the same molecule, the kon in [7] was found to be 241000 M⁻¹ s⁻¹. The binding result in experiment [11] was “binds”; in experiment [12], “binds”; in experiment [13] it was “binds”; in experiment [14], “binds”; in experiment [15], “no binding”; in experiment [16], “no binding”. For the same molecule, the binding result in experiment [17] is recorded as “no binding”.

Values taken from patent publication US20210163580A1 (NATIONAL HEALTH RESEARCH INSTITUTES, published 2021).
